Non-standard residues stand in square brackets, D forms with d. No end group written: not given here. *: point of attachment. Biotin = O=C1N[C@H]2[C@H](CS[C@H]2CCCCC(=O)*)N1; sY = N[C@@H](Cc1ccc(OS(=O)(=O)O)cc1)C(=O)O
T1: Biotin PSGL-1(105-125) peptide (human, N-terminal acetyl; C-terminal Lys-biotin)
T1 peptide: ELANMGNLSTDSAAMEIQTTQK

T2: Recombinant human PSGL-1(ECD)-hFc1 (R&D Systems, Cat. 3345-PS) (human, UniProt Q14242 42-305)
T2 construct: Bought; Gln42-Val295 counted on AAC50061; also called PSGL-1-Fc; PSGL-1-hFc1 chimera; not shown: human IgG1 Fc, Pro100-Lys330
T2 sequence: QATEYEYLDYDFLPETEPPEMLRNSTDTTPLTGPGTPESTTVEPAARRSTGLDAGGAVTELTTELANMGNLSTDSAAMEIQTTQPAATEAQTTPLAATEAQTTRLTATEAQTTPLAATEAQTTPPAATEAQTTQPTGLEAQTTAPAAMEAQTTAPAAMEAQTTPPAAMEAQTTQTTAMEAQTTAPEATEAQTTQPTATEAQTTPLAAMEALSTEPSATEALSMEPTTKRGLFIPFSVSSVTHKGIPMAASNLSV

T3: PSGL-1(42-62) N-terminal peptide, sulfation state not told at the place (human, not fully specified; sulfation of Y46, Y48, Y51 not stated for these table columns)
T3 peptide: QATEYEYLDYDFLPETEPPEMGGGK

T4: Biotin PSGL-1(290-310) peptide (human, N-terminal acetyl; C-terminal Lys-biotin)
T4 peptide: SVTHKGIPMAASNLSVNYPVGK

T5: Human PSGL-1(ECD)-HIS (human, UniProt Q14242 42-319)
T5 construct: also called Human PSGL-1-His
T5 sequence: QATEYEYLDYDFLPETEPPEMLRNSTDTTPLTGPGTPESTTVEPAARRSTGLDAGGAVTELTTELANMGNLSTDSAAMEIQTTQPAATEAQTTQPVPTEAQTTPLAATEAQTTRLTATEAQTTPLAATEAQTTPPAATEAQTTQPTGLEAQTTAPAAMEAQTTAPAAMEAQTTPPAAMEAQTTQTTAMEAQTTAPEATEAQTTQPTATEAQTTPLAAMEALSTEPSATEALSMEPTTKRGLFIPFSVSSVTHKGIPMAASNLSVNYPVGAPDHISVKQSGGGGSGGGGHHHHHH

T6: Biotin PSGL-1(42-62) peptide, unmodified (human, C-terminal Lys-biotin)
T6 construct: Residues 42-62 followed by GGGK-biotin; also called WT; wild-type
T6 peptide: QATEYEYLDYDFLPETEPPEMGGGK

T7: 42-80 (C-terminal Lys-biotin)
T7 construct: also called Biotin PSGL-1(42-80) peptide
T7 peptide: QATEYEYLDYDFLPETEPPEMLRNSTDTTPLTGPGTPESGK

T8: Biotin Y46,48,51(SO3) PSGL-1(42-62) peptide (human, sulfotyrosine at Y46, Y48 and Y51; C-terminal Lys-biotin)
T8 construct: also called fully sulfated N-terminal PSGL-1 peptide
T8 peptide: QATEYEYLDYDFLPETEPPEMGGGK

T9: Sulfotyrosine CCR2b biotin peptide (human)
T9 construct: also called CCR2b peptide
T9 peptide: TTFFD[sY]D[sY]GAPSHGGK(Biotin)

B1: 15A7 (antibody, V domains shown)
VH: EVQLVESGGGLVQPGGSLRLSCAASGFTFSSFGMHWVRQAPGKGLEWVAYINGGSSTIFYANAVKGRFTISRDNAKNTLYLQMNSLRAEDTAVYYCARYASYGGGAMDYWGQGTLVTVSS
VL: DIQMTQSPSSLSASVGDRVTITCRSSQSIVHNDGNTYFEWYQQKPGKAPKLLIYKVSNRFSGVPSRFSGSGSGTHFTLTISSLQPEDFATYYCFQGSYVPLTFGQGTKVEIK
notes: Control mAb, recombinant; also called h15A7; 15A17
B2: 19J23 (antibody, V domains shown)
VH: EVKLVESGGGLVQPGGSLSLSCAASGFTFTDYYMSWVRQPPGKALEWLALIRNKANGYTTEYSASVKGRFTISRDDSQSILYLQVNALRAEDVATYYCARPWDYWGQGTTLTVSS
VL: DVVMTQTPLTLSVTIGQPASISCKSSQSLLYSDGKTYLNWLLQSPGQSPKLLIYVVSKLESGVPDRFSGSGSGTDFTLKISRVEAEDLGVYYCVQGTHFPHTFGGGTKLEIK
notes: Non-functional anti-PSGL-1 mAb (Verseau); only variable domains given
B3: 18F17 (antibody, V domains shown)
VH: QVTLKESGPGILQPSQTLSLTCSFSGFSLSTFGMGVGWIRQPSGKGLEWLAHIWWDDDKYYNPALKSRLTISKDTSKNQVFLKIANVDTADTATYYCAIYYDYGVGFDYWGQGTTLTVSS
VL: DIVMTQAAPSVPVTPGESVSISCRSSKSLLHSNGYTFLYWFLQRPGQSPQLLIYRMSNLASGVPDRFSGSGSGTAFTLRISRVEAEDVGVYYCMQHLEYPFTFGTGTKLEIK
notes: as for B2
B4: 06G08 (antibody, IgG4, V domains shown)
VH: EVKLLESGGGVVQPGGSLRLSCAVSGFTFSNYAMHWVRQAPGKGLEWVAVISFDGSNKYTADSVQGRFTISRDNSKNTLYLQMNSLTPEDTAVYYCASRIIRTVAGGDYWGQGTLVTVSS
VL: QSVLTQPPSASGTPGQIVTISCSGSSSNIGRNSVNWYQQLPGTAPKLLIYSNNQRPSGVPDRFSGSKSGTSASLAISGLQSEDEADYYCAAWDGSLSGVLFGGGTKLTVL

Tests used:
[1] = target: T1, Biotin PSGL-1(105-125) peptide; assay: ELISA; against WT PSGL-1(ECD)-hFc1
Protocol: (§1) A typical ELISA experiment involved binding of a single concentration or serially diluted mAb in assay buffer (3% BSA in PBS containing 0.05% Tween®20, pH 7.4) onto BSA blocked high binding microtiter plate half-wells (Corning Cat. #3690), which contained PSGL-1 protein or streptavidin-immobilized biotin peptide. After incubation for 45 min. at 37° C., the plate was washed 3 times with wash buffer (PBS containing 0.05% Tween®20, pH 7.4), and an appropriate HRP-conjugated secondary antibody added (25 ul/well) (HRP goat anti-mouse or anti-human IgG). After 45 min. incubation at 37° C., the plate was washed and antibody bound to plate-immobilized target was determined at A450 nm using HRP substrate (3,3′5,5′-tetramethylbenzidine (TMB)). For each antibody, duplicate values were averaged and assay background subtracted.

[2] = target: PSGL-1(ECD)-hFc1 S116A protein (Sino Biological) (human); assay: ELISA; against WT PSGL-1(ECD)-hFc1
Sequence of PSGL-1(ECD)-hFc1 S116A protein (Sino Biological) (human) (chain, as listed by the source S116A S116A): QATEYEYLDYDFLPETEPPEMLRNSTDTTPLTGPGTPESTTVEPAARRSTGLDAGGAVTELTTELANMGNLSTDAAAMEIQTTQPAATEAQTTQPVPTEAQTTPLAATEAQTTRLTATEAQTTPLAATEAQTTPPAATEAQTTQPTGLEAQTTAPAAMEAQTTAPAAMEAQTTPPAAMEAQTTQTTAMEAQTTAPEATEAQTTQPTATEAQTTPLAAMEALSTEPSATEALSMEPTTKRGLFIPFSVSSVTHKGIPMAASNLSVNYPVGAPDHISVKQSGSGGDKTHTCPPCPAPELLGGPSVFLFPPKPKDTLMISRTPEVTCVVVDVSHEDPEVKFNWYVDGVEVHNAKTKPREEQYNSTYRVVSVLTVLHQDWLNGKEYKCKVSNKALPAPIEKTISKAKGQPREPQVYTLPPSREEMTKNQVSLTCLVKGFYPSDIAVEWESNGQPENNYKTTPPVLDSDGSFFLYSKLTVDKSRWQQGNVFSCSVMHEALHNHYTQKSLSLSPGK
Protocol: as §1

[3] = target: PSGL-1(ECD)-hFc1 M119A protein (Sino Biological) (human); assay: ELISA; against WT PSGL-1(ECD)-hFc1
Protocol: as §1

[4] = target: PSGL-1(ECD)-hFc1 I121A protein (Sino Biological) (human); assay: ELISA; against WT PSGL-1(ECD)-hFc1
Sequence of PSGL-1(ECD)-hFc1 I121A protein (Sino Biological) (human) (chain, as listed by the source I121A I121A): as the sequence (chain, as listed by the source S116A S116A) above, with A75S, I80A counted along it
Protocol: as §1

[5] = target: T2, Recombinant human PSGL-1(ECD)-hFc1 (R&D …); assay: blocking ELISA vs L-selectin-Fc
Protocol: (§2) A typical selectin blocking ELISA assay involved coating high binding half-well plates (Corning, Cat. #3690) with 2.5 ug/mL/25 ul per well of recombinant PSGL-1-Fc protein (R&D Systems, Cat #3345-PS) in PBS, pH 7.4, overnight at 4° C. […] Antibody (test and controls) was serially diluted (25 ul/well) in duplicate in assay buffer (3% BSA in wash buffer) into appropriate wells and the plate incubated for 45 min at 37° C. […] The plate was washed ×3 and HRP-conjugated streptavidin was added in assay buffer [25 ul per well; (Jackson Immunoresearch, Cat. #016-030-084)] and the plate incubated for 45 min at 37° C. […] For each antibody, an IC50 value was determined from sigmoidal fitted titration curves.

[6] = target: T2, Recombinant human PSGL-1(ECD)-hFc1 (R&D …); assay: Octet tandem; competitor 20G13
Protocol: (§3) Antibody binning was performed by ForteBio Octet® using a tandem assay format, with anti-human IgG biosensor-immobilized PSGL-1(ECD)-hFc1 protein, binding of competitor mAb followed by analyte antibody. As competition controls, the same antibody was competed against itself, and mAb competition was performed bidirectionally.
(§4) Antibody binning by tandem octet was performed by immobilizing 10 ug/mL PSGL-1(ECD)-hFc1 (R&D Systems, Cat. #3345-PS) in PBS, pH 7.4, onto anti-human IgG capture biosensors (ForteBio, Cat. #18-5060), binding of 100 nM competitor antibody for 300 sec., followed by binding of 100 nM of analyte mAb for 300 s in kinetic buffer (0.1% BSA in PBS containing 0.02% tween 20 and 0.05% sodium azide, pH 7.4). Synagis (Johnson et al. (1997) J. Infect. Dis. 176:1215-1224) served as a negative control mAb for competition. An Fc quench step (0.25 mg/mL human IgG Fcl; BioXcell, Cat. #BE0096, in kinetic buffer) was included when human mAbs were tested to prevent high background from the antibodies binding to the anti-human IgG biosensor. Biosensor regeneration buffer consisted of 10 mM glycine, pH 2.0.

[7] = target: T2, Recombinant human PSGL-1(ECD)-hFc1 (R&D …); assay: Octet tandem; competitor 15A7
Protocol: as §3, §4

[8] = target: T2, Recombinant human PSGL-1(ECD)-hFc1 (R&D …); assay: blocking ELISA vs VISTA-Fc, pH 6.0
[9] = target: T2, Recombinant human PSGL-1(ECD)-hFc1 (R&D …); assay: Octet tandem; competitor 19L04
Protocol: as §3, §4

[10] = target: T2, Recombinant human PSGL-1(ECD)-hFc1 (R&D …); assay: Octet tandem; competitor 18K07
Protocol: as §3, §4

[11] = target: T2, Recombinant human PSGL-1(ECD)-hFc1 (R&D …); assay: Octet tandem; competitor 18F17
Protocol: as §3, §4

[12] = target: T1, Biotin PSGL-1(105-125) peptide; assay: ELISA, plate-bound peptide or protein
Protocol: as §1

[13] = target: PSGL-1(ECD)-hFc1 S116A protein (Sino Biological) (human); assay: ELISA, plate-bound peptide or protein
Protocol: as §1

[14] = target: PSGL-1(ECD)-hFc1 M119A protein (Sino Biological) (human); assay: ELISA, plate-bound peptide or protein
Protocol: as §1

[15] = target: PSGL-1(ECD)-hFc1 I121A protein (Sino Biological) (human); assay: ELISA, plate-bound peptide or protein
Protocol: as §1

[16] = target: T2, Recombinant human PSGL-1(ECD)-hFc1 (R&D …); assay: Octet tandem; competitor 19J23
Protocol: as §3, §4

[17] = target: T2, Recombinant human PSGL-1(ECD)-hFc1 (R&D …); assay: Octet tandem; competitor 19N05
Protocol: as §3, §4

[18] = target: T2, Recombinant human PSGL-1(ECD)-hFc1 (R&D …); assay: Octet tandem; competitor 16E17
Protocol: as §3, §4

[19] = target: T3, PSGL-1(42-62) N-terminal peptide, …; assay: mAb binding to PSGL-1(42-62)
[20] = target: T2, Recombinant human PSGL-1(ECD)-hFc1 (R&D …); assay: blocking ELISA vs P-selectin-Fc
Protocol: as §2

[21] = target: T4, Biotin PSGL-1(290-310) peptide; assay: ELISA; against WT PSGL-1(ECD)-hFc1
Protocol: as §1

[22] = target: T4, Biotin PSGL-1(290-310) peptide; assay: ELISA, plate-bound peptide or protein
Protocol: as §1

Human PSGL-1(ECD)-HIS = target: T5, Human PSGL-1(ECD)-HIS; assay: ELISA, plate-immobilized protein
[23] = target: T2, Recombinant human PSGL-1(ECD)-hFc1 (R&D …); assay: ELISA, plate-immobilized protein
[24] = target: T1, Biotin PSGL-1(105-125) peptide; assay: ELISA, streptavidin-immobilized biotin peptide
Protocol: as §1

[25] = target: T6, Biotin PSGL-1(42-62) peptide, unmodified; assay: ELISA, streptavidin-immobilized biotin peptide
Protocol: as §1

42-80 = target: T7, 42-80; assay: ELISA, streptavidin-immobilized biotin peptide
Protocol: as §1

[26] = target: T8, Biotin Y46,48,51(SO3) PSGL-1(42-62) …; assay: ELISA, plate-bound peptide
[27] = target: T9, Sulfotyrosine CCR2b biotin peptide; assay: ELISA, plate-bound peptide

Binder | EC50/EC50WTprot [2] [fold] | EC50/EC50WTprot [3] [fold] | EC50/EC50WTprot [4] [fold] | % binding of analyte mAb [6] [%] | % binding of analyte mAb [7] [%] | % binding of analyte mAb [9] [%] | % binding of analyte mAb [10] [%] | % binding of analyte mAb [11] [%] | EC50 [13] [nM] | EC50 [14] [nM] | EC50 [15] [nM] | % binding of analyte mAb [16] [%] | % binding of analyte mAb [17] [%] | % binding of analyte mAb [18] [%] | EC50/EC50WTprot [21] [fold] | EC50 [22] [nM] | EC50 (read off the curve) (Human PSGL-1(ECD)-HIS) [nM] | other results
B1 | 0.78 | ~30 | ~60 | 15.1 | 28.3 | 48 | 91.5 | 86.6 | 0.25 | ~10 | ~20 | 94.3 | 46.2 | 56.2 | – | – | – | EC50/EC50WTprot [1]: 7.18 fold; % max Block [5]: 0%; % max Block [8]: 0%; EC50 [12]: 4.31 nM; binding result [19]: no binding; % max Block [20]: 0%
B2 | – | – | – | 55.9 | 84.9 | 68.9 | 100 | 52.1 | – | – | – | 29.2 | 76.6 | 93.3 | 3.1 | 2.19 | ~0.9 | binding result [23]: no binding (tested: Log M -7.4 (about 40 nM))
B3 | 0.67 | 0.74 | 0.68 | 22 | 61.9 | 68.7 | 90.7 | 28.2 | 0.54 | 0.6 | 0.55 | 26.9 | 84.2 | 124 | < 1 | < 0.5 | ~0.7 | binding result [24]: no binding (tested: 10 nM); binding result [25]: no binding (tested: 10 nM); binding result (42-80): no binding (tested: 10 nM)
B4 | – | – | – | – | – | – | – | – | – | – | – | – | – | – | – | – | – | EC50 [26]: 0.71 nM; binding result [27]: no binding (tested: 20 nM)

Reference: patent publication US20220396632A1 (VERSEAU THERAPEUTICS, published 2022)
